Article PMC6585716 (Biopolymers, 2017)
code X = not defined here; Az4 = not defined here

Target: Recombinant human vascular endothelial growth factor (VEGF165) (human, UniProt P15692-4 1-191)
Conditions: both partners purified

Sequence of Recombinant human vascular endothelial growth factor (VEGF165) (P15692 other isoform, or with tags, fused parts or gaps): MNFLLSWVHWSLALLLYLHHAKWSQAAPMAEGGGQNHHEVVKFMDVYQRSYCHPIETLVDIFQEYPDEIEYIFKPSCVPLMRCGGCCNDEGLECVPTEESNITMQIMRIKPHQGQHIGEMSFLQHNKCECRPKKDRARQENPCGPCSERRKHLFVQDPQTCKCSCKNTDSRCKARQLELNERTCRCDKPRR

B1: AnchorV (X-VEPNCDIHVMWEWECFERL-Az4) (peptide)
peptide: {code X}-VEPNCDIHVMWEWECFERL-Az4
modifications: cysteine pairing not given here; reading uncertain
notes: also called anti-VEGF cyclic peptide ligand
EC50: 140 ± 21 nM
